Source: the supplement of paper PMC9170038

Tested on: MS2 coat protein
Test: apparent KD of MS2 coat protein; designed switch direction (-1 OFF switch, 1 ON switch): 1; higher = weaker reporter binding
Method in brief: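 On Illumina chips, designed RNA switches with common flanks were made by stalled E. coli RNA polymerase. Titrations with SNAP-549-labelled MS2 coat protein, doubling from 0.7 or 1.5 nM to 3 µM, were done with no input, with 200 uM small-molecule ligand, or with an oligonucleotide input. Apparent KD is the median per design over clusters, from curve fits of normalised cluster fluorescence.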

[1] = Eterna round: R95, input ligand: FMN 200 uM
[2] = Eterna round: R95, input ligand: microRNA oligo, concentration not stated
[3] = Eterna round: R95, input ligand: none
[4] = input ligand: microRNA oligo, concentration not stated

Sequence: AGUCCAGCCUGAGCUGGACGAAAGCAUGUACAUGAGGAUCACCCAUGUCAUGUACAAGCUUUUUGCUCGUCUUAAAA [Zipper 46 - 4] (puzzle: Sensor for hsa-mir-208a)
- apparent KD of MS2 coat protein [1]: 482 nM
- apparent KD of MS2 coat protein [2]: 15 nM
- apparent KD of MS2 coat protein [3]: 532 nM

Sequence: UAAGCAUUCCUAGGAUAUGUAGGAUAUGUACAUGAGGAUCACCCAUGUCUACCAGAGACAGAAGGACAGAAGGAGGAAUGCUUC [pwkr ssNG2 2FMN 1F5s.8] (Eterna round: R96, puzzle: Same State NG 2)
- apparent KD of MS2 coat protein (input ligand: FMN 200 uM): 19.1 nM
- apparent KD of MS2 coat protein [4]: 25.8 nM
- apparent KD of MS2 coat protein (input ligand: none): 36.5 nM

Sequence: GCGGAGAGGUAAGGAUAUCCAUGGAAAAAACAUGAGGAUCACCCAUGUAGGAAAAAAACUAGGAGGGAGAAGGUACCGGGACGC [AK SSNG2-V2-20] (Eterna round: R96, puzzle: Same State NG 2)
- apparent KD of MS2 coat protein (input ligand: FMN 200 uM): 21.7 nM
- apparent KD of MS2 coat protein [4]: 23.4 nM
- apparent KD of MS2 coat protein (input ligand: none): 29.8 nM

Sequence: AAAAUACAUGAGGAUCACCCAUGUAGAAACUACACAGGAUAUCGGACGGCUGUAGCCGAACGAGAAGGGUGAACCC [Uszadi] (puzzle: Same State 1)
- apparent KD of MS2 coat protein [1]: 205 nM
- apparent KD of MS2 coat protein [2]: 228 nM
- apparent KD of MS2 coat protein [3]: 313 nM

Sequence: UAGGGACAUGAGGAUCACCCAUGUGCCUCAUAUGGAGAAACUCAGGAUAUGCUGAGGAUCACCCGGCAGAAGGGAGAUCCGAGG (Eterna round: R96, puzzle: Same State NG 3)
- apparent KD of MS2 coat protein (input ligand: FMN 200 uM): 86.6 nM
- apparent KD of MS2 coat protein [4]: 33 nM
- apparent KD of MS2 coat protein (input ligand: none): 53.4 nM

Sequence: GCUCGAUGAUAGGCCUACAUGAGGAUCACCCAUGUAACUGGGCAGGAUAUCUAAAUGCAGAAUGUAGAGAAGGGCCCGUCGAGC [SameState NG3 #53] (Eterna round: R96, puzzle: Same State NG 3)
- apparent KD of MS2 coat protein (input ligand: FMN 200 uM): 220 nM
- apparent KD of MS2 coat protein [4]: 86.8 nM
- apparent KD of MS2 coat protein (input ligand: none): 230 nM

Sequence: GUAAAGAAAUAAGGAUAUUGAAUACAUAUGUUUAACAUGAGGAUCACCCAUGUGGGUUGCGGUAUCGAGAAGGUAUAAUAAAAG [Mat - Same State NG 2 - JL mod - D8] (Eterna round: R96, puzzle: Same State NG 2)
- apparent KD of MS2 coat protein (input ligand: FMN 200 uM): 162 nM
- apparent KD of MS2 coat protein [4]: 171 nM
- apparent KD of MS2 coat protein (input ligand: none): 168 nM

Sequence: UCUUGGUUUUUGCUCGUUUUUUGUGUUGAACAUGAGGAUCACCCAUGUAUUGUACGAUCCGAUUUAAUAAUGGUCCG [JMF 62] (puzzle: Sensor for hsa-mir-208a)
- apparent KD of MS2 coat protein [1]: 63.2 nM
- apparent KD of MS2 coat protein [2]: 55.7 nM
- apparent KD of MS2 coat protein [3]: 83.1 nM

Sequence: AUGCCAAAUGGAGGAUAUGGAGCCUUAUUGGCUCCAGAAGGUCAAACAUGAGGAUCACCCAUGUGGCAGUGGUCUAAUGACCAC [Eli NG1ss - 45] (Eterna round: R96, puzzle: Same State NG 1)
- apparent KD of MS2 coat protein (input ligand: FMN 200 uM): 110 nM
- apparent KD of MS2 coat protein [4]: 192 nM
- apparent KD of MS2 coat protein (input ligand: none): 368 nM

Sequence: GAGGGAUGAGCGUAGGAUAUAGGAGGAGUGACAUGAGGAUCACCCAUGUGGUAUGAGGGAGGAUUCUAGAAGGACGCGGUAGAAG [JR_SS2_Sub064] (puzzle: Same State 2)
- apparent KD of MS2 coat protein [1]: 66.4 nM
- apparent KD of MS2 coat protein [2]: 172 nM
- apparent KD of MS2 coat protein [3]: 235 nM

Sequence: CCGUAGAUGGGACAGGAUAUGACUGUCGUCACAUGAGGAUCACCCAUGUCCCGGCAAUGCCACCGUUAGAAGGGUCCCGUCUCGG [Tiquiser] (puzzle: Same State 2)
- apparent KD of MS2 coat protein [2]: 12.2 nM

Sequence: CUUUUUAAUGCAGGAUAUGAUCAACAUGAGGAUCACCCAUGUGGUGUUGUGAGUAAGGAGAGUGAUCAGAAGGGCAUCUUCUCA [SS-NG2-LRO05] (Eterna round: R96, puzzle: Same State NG 2)
- apparent KD of MS2 coat protein (input ligand: FMN 200 uM): 301 nM
- apparent KD of MS2 coat protein [4]: 133 nM
- apparent KD of MS2 coat protein (input ligand: none): 169 nM

Sequence: UUGAUGUACUGAGGAUAUCGUGUCGUCUGAUUUGACAUGAGGAUCACCCAUGUGGGAAGUGGUAUCGAGAAGGCAGUUUUCUUA [JR_SSNG2_Sub028] (Eterna round: R96, puzzle: Same State NG 2)
- apparent KD of MS2 coat protein (input ligand: FMN 200 uM): 151 nM
- apparent KD of MS2 coat protein [4]: 351 nM
- apparent KD of MS2 coat protein (input ligand: none): 745 nM

Sequence: UUUAUACAUGAGGAUCACCCAUGUCAAUGUAGUCGAGGAUAUGGGCAGCUGUGAGGCGUACUAGAAGGCGAAGAGG [JL-ss1-3.09 ViennaUCT mod] (puzzle: Same State 1)
- apparent KD of MS2 coat protein [1]: 103 nM
- apparent KD of MS2 coat protein [2]: 378 nM
- apparent KD of MS2 coat protein [3]: 579 nM

Sequence: UGACACACGGCAGGAUAUCGUUAGCAAAGCUAACGAGAAGGGCCUCAUGUCGUGGAAACGUGACAUGAGGAUCACCCAUGUUGC [Omei SS(NG)1 Cv10] (Eterna round: R96, puzzle: Same State NG 1)
- apparent KD of MS2 coat protein (input ligand: FMN 200 uM): 204 nM
- apparent KD of MS2 coat protein [4]: 12.4 nM
- apparent KD of MS2 coat protein (input ligand: none): 53.7 nM

Sequence: AACAUGAGGAUCACCCAUGUGAAAUACUGAGGCAGCUCAGGGAAGGAUAUGGUUGACACCCUCGACCAGAAGGUCCAAAAUAAA [Aquorxe] (Eterna round: R96, puzzle: Same State NG 3)
- apparent KD of MS2 coat protein (input ligand: FMN 200 uM): 80.8 nM
- apparent KD of MS2 coat protein [4]: 108 nM
- apparent KD of MS2 coat protein (input ligand: none): 143 nM

Sequence: UGGUACAUGGGAGGAUAUGGAGUUGAGACAUGAGGAUCACCCAUGUUAUAAAAGCCGAGAGGCAACUAGAAGGCCCAUGUACCU [JL SSNG1 3.92] (Eterna round: R96, puzzle: Same State NG 2)
- apparent KD of MS2 coat protein (input ligand: FMN 200 uM): 10.2 nM
- apparent KD of MS2 coat protein [4]: 49.9 nM
- apparent KD of MS2 coat protein (input ligand: none): 62.9 nM

Sequence: GAAACAUGACGAGGAUAUGGAACAUGAGGAUCACCCAUGUAUGUUCCAUAACGCGAAUGACGAAUCCAGAAGGCGUCGUGAAAG [Mat - Same State NG 2 - JL mod - D28] (Eterna round: R96, puzzle: Same State NG 2)
- apparent KD of MS2 coat protein (input ligand: FMN 200 uM): 33.6 nM
- apparent KD of MS2 coat protein [4]: 177 nM
- apparent KD of MS2 coat protein (input ligand: none): 233 nM

Sequence: AACAAUCUAUCUGAGGAUAUCAUGAAAAAAACAUGAGGAUCACCCAUGUGCAGGAAAACUGCAUAUGAGAAGGCAGAUAGAUUGA [salish99_SS2_r3_001] (puzzle: Same State 2)
- apparent KD of MS2 coat protein [1]: 20.6 nM
- apparent KD of MS2 coat protein [2]: 484 nM
- apparent KD of MS2 coat protein [3]: 741 nM

Sequence: CAGAGCCCAUGGGCCUGACAUGAGGAUCACCCAUGUGGCUUUGAGGAUAUAAGCGGAAACAGCGCUUAGAAGGCGAAGCCUAAC [Rearisve] (Eterna round: R96, puzzle: Same State NG 3)
- apparent KD of MS2 coat protein (input ligand: FMN 200 uM): 157 nM
- apparent KD of MS2 coat protein [4]: 14.1 nM
- apparent KD of MS2 coat protein (input ligand: none): 41.9 nM

Sequence: GUGGUCAGACAUGAGGAUCACCCAUGUGGAAUAAAUAACGUACAGGAUAUUGAAUAUAGGAUAUACAAGAAGGGUAGAUUGGUG (Eterna round: R96, puzzle: Same State NG 3)
- apparent KD of MS2 coat protein (input ligand: FMN 200 uM): 167 nM
- apparent KD of MS2 coat protein [4]: 115 nM
- apparent KD of MS2 coat protein (input ligand: none): 127 nM

Sequence: GAAACAUGACGAGGAUAUGGUACAUGAGGAUCACCCAUGUAUGUACCACGACGCGUACGUCGAAUCCAGAAGGCGUCGUGAAAG [Mat - Same State NG 2 - JL mod - D20] (Eterna round: R96, puzzle: Same State NG 2)
- apparent KD of MS2 coat protein (input ligand: FMN 200 uM): 27.8 nM
- apparent KD of MS2 coat protein [4]: 51.1 nM
- apparent KD of MS2 coat protein (input ligand: none): 86.4 nM

Sequence: CGUUCUUACUCGGUACGGUGAGUAGAGGAACAUGAGGAUCACCCAUGUAUGAGCUUUUUGCUCGUGAUUAACAGUAG [JR_SHM208a_Sub014] (puzzle: Sensor for hsa-mir-208a)
- apparent KD of MS2 coat protein [1]: 58 nM
- apparent KD of MS2 coat protein [2]: 63.3 nM
- apparent KD of MS2 coat protein [3]: 105 nM
